Results published in publication PMC6589724, “A geminivirus betasatellite encoded βC1 protein interacts with PsbP and subverts PsbP‐mediated antiviral defence in plants”.

Biological target: T1, GST-βC1 (Radish leaf curl betasatellite (RaLCB), UniProt A9XCM1 1-118)
T1 sequence: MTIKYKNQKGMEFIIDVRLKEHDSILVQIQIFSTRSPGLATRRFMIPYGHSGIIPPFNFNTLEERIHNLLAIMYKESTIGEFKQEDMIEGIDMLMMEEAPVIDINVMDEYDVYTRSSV
Assay: EMSA; 20 mM Tris-HCl pH 8.0, 2 mM DTT, 5 mM MgCl2, 12% glycerol, 25 mM KCl, 2 mM ATP, 10 nM probe, 15 min, room temperature; 3.7% native PAGE
Settings: protein: recombinant; tags: N-terminal GST (pGEX-6p-2); label: 5'-32P; single strand

Q: Does ACGCTACGCAGCAGCCTTAGCTAC (ssDNA) [SCR probe (1303-1326)] bind?
A: Result: binds
